Values quoted from earlier work, collected in publication PMC9792189.

Biological target: SARS-CoV-2 S1/RBD (target in cited aptamer papers) (SARS-CoV-2) (UniProt P0DTC2)
Experiment: SPR

| Sequence | Kd [nM] |
| --- | --- |
| TTCCGGTTAATTTATGCTCTACCCGTCCACCTACCGGAATTTTTTTTTTTTTTTTTTTTTTTTTTTTTTACGGGTTTGGCGTCGGGCCTGGCGGGGGGATAGTGCGGT [DSA1N5] | 0.51 |
| AAAGCCACAACGAGCTCGGGTGAAAGCAGTCCGTTGAGTAGGCTTGCGGCTGCGTGGCATATCGATT [SSapt1] | 105 |
| CAGCACCGACCTTGTGCTTTGGGAGTGCTGGTCCAAGGGCGTTAATGGACA [CoV2-RBD-1C] | 3.1 |
| GGGGTGGGGTAGTGGTATGGAGCG [XN-268s] | 4.26 |
| TCGAGTGGCTTGTTTGTAATGTAGGGTTCCGGTCGTGGGT [Aptamer-1] | 28 |
| TTCCGGTTAATTTATGCTCTACCCGTCCACCTACCGGAA [MSA1T] | 2.8 |
| ATTACCGATGGCTTGTTTGTAATGTAGGGTTCCGTCGGAT [Aptamer-2] | 27 |
| ACGGGTTTGGCGTCGGGCCTGGCGGGGGGATAGTGCGGT [MSA5T] | 10.1 |
